Experiments:
Assay in all cases: pull-down binding Z-score (relative to library population); higher = stronger binding
[1] = tested on: TO-N3-2 (biotin conjugate); conditions: RNA library: Library-2
Outline: (§1)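 Cy5- or Cy3-end-labelled RNA library (1 μg) was heat-folded in phosphate/NaCl/KCl buffer and incubated 60 min at 25 °C with streptavidin beads carrying 100 pmol biotin-conjugated small molecule. After three washes, bound RNA was eluted in hot SDS and hybridised 20 h at 55.5 °C to a DNA barcode microarray. Binding was scored by subtracting a beads-only control, averaging barcoded replicate probes after dropping highest and lowest, and converting to a Z-score against library mean and standard deviation.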

[2] = tested on: TO-3-N3 (biotin conjugate); conditions: RNA library: Library-2
Outline: as §1

[3] = tested on: TO-3-N3-2 (biotin conjugate); conditions: RNA library: Library-2
Outline: as §1

[4] = tested on: G-clamp-N3 (biotin conjugate); conditions: RNA library: Library-1 (pre-miRNA loops + repeats)
Outline: as §1

TO-N3 (biotin conjugate) = conditions: RNA library: Library-2
Outline: as §1

Sequence | pull-down binding Z-score [1] | pull-down binding Z-score [2] | pull-down binding Z-score [3] | pull-down binding Z-score [4] | pull-down binding Z-score (TO-N3 (biotin conjugate))
AUCAUAAUAAAGGUGUCAUGAU [hsa-mir-3682] | -0.694 | -0.489 | -0.169 | -0.55 | -0.879
AUCAUCUCUCCCUUGGAU [hsa-mir-3683] | -0.446 | -0.626 | -0.257 | 1.39 | -0.733
AUCAUGUAUAAUUAAAAAUGAU [hsa-mir-509-2_509-3_509-1] | -1 | -0.267 | -0.0578 | -0.568 | -0.599
AUCCAGUCCACUUAAUUCUGAGAAAGUCCACAGACUGGAUCGGGUCUUGGAUUUUAGCUGGAUUCAU [hsa-mir-6082] | 0.4 | -0.796 | -0.223 | -0.0473 | -0.258
AUCCCUUAGAUGCUAAGAUGGGGAU [hsa-mir-145] | -0.75 | -0.278 | -0.237 | 1.18 | -0.513
AUCGGUCGAGAGCGUCCUGGCUGAU [hsa-mir-3178] | 1 | 0.18 | -0.22 | 0.173 | 0.526
AUCUAUUCCAGAAGAU [hsa-mir-4696] | -1.35 | -0.911 | -0.62 | 1.53 | -1.28
AUCUCCUUUAGGAAAACCUUCUGUGGGGAGU [hsa-mir-1296] | -0.641 | -0.0517 | -0.226 | -0.272 | -0.275
AUCUGAAUGAUCUCAGC [hsa-mir-626] | 0.364 | 0.58 | 0.105 | -1.32 | 0.677
AUCUGAGGUGACUGGCACAGAAGACUCAGG [hsa-mir-6735] | 0.797 | 0.238 | 0.101 | -0.394 | 0.673
AUCUGAUGUUGAAUACUCUUUAAGU [hsa-mir-1245a] | -0.685 | -0.143 | -0.281 | -1.01 | -0.322
AUCUGCAGGGCAUUGUGCUAACAGGU [hsa-mir-4681] | 0.0756 | 0.532 | 0.211 | 1.35 | 0.644
AUCUUCCUGACCUGGUAAUAAUUAGGUGAGAAGGAU [hsa-mir-8069-2_8069-1] | -1.12 | -0.958 | -0.589 | 0.78 | -1.2
AUGAGAAAUUGGUUUCAA [hsa-mir-8063] | -0.557 | -0.191 | -0.245 | 1.5 | -0.161
AUGAGCUAAAAAUCCCCAAGCUCU [hsa-mir-4769] | -0.0561 | -0.414 | -0.358 | -0.0764 | -0.477
AUGAUAUAUUGUGAGAGCCAUGUCAU [hsa-mir-6718] | -0.393 | 0.0536 | -0.0702 | 0.0796 | -0.0603
AUGAUUUUUGGGGUCA [hsa-mir-4678] | -0.328 | -0.0616 | -0.1 | 1.23 | -0.0941
AUGCACCCAUAUUUUAAUAUCAAACUAUGACAAAUU [hsa-mir-3974] | -0.358 | -0.386 | -0.134 | -0.337 | -0.417
AUGCAUGGCUGGUGGCGGCGUGCAG [hsa-mir-6722] | 2.13 | 0.897 | 0.74 | 0.533 | 1.56
AUGCCCCAGGUGACGUGCUGGGCU [hsa-mir-4526] | 0.888 | 0.205 | 0.0558 | -0.192 | 0.495
AUGCCUGAGAAUAUAUGAAGGAGGCU [hsa-mir-204] | 0.965 | 0.0552 | 0.374 | 2.31 | 0.525
AUGCUAAGUCCAUGGGCAAACAU [hsa-mir-5704] | 0.235 | -0.258 | -0.165 | -0.176 | -0.088
AUGGAGAACGCCCCCACCAGUUCCCAC [hsa-mir-6767] | 0.67 | 1.67 | 0.564 | -0.992 | 1.68
AUGGAGGCUGCUUCUCCUCAGCAGCUGCCAUA [hsa-mir-3651] | 0.366 | -0.15 | -0.382 | 0.277 | -0.13
AUGGAUAUGGGAACUGUGAUGUCCA [hsa-mir-4768] | 0.232 | -0.305 | 0.0446 | 1.17 | -0.136

Sequence | pull-down binding Z-score [1] | pull-down binding Z-score [2] | pull-down binding Z-score [3] | pull-down binding Z-score [4] | pull-down binding Z-score (TO-N3 (biotin conjugate))
AUGGCAUUUAAGGAUUGCUAU [hsa-mir-4477a] | -0.675 | -0.716 | -0.473 | 0.671 | -0.893
AUGGGAGCCCAGAGACGUCCUAU [hsa-mir-8074] | 0.669 | -0.304 | -0.433 | 0.253 | 0.0134
AUGGGGCAGCUGGGAUGGUCCAAAAGGGUGGCCUCA [hsa-mir-1226] | 1.17 | 0.729 | 0.406 | 1.14 | 1.05
AUGGUCUCUAUAUUUAUGAUGAUUAA [hsa-mir-889] | 0.0111 | 0.533 | 0.373 | -0.798 | 0.577
AUGGUGUUUGUGAGUUGAUUGACAUCGU [hsa-mir-6506] | 0.0463 | -0.398 | -0.457 | -0.212 | -0.408
AUGGUUAAUGUUCCACAGCCA [hsa-mir-5190] | 0.372 | -0.134 | 0.157 | -0.723 | 0.0767
AUGGUUCCUAUUCUGAUCAAUAAACAUGGUUUGAGCCUAGUUACAAUGAUCUAAAAUUCACGGUCCAA [hsa-mir-548o] | -0.0344 | -0.961 | -0.193 | -1.15 | -0.587
AUGGUUUAGAGUUACACCCUGGGAGUUAACUGU [hsa-let-7c] | 0.0342 | 0.351 | 0.565 | -0.228 | 0.437
AUGUCCCUUUAGUUCAAAGU [hsa-mir-2052] | -0.324 | -0.246 | -0.0713 | -2.06 | -0.283
AUGUCUCAGGUCCCCAGCUGAGUCAA [hsa-mir-6513] | 0.47 | 0.633 | 0.129 | -1.3 | 0.609
AUGUCUGCUGGGGAACCGGGGCU [hsa-mir-4518] | 1.39 | 0.587 | 0.297 | 1.1 | 0.984
AUGUGAUGUCACUGAGGAAAUCACAC [hsa-mir-216b] | -0.00778 | -0.223 | -0.272 | 0.862 | -0.124
AUGUGAUGUGAGCAGAUGGUUCUCACU [hsa-mir-6758] | 0.176 | -0.532 | -0.346 | -0.46 | -0.621
AUGUGAUUGCUGUCCCAAACUCAUGU [hsa-mir-135b] | -0.0979 | -0.305 | 0.00564 | -0.794 | -0.126
AUGUGUUGUGAUGGCACAGCGU [hsa-mir-592] | 0.256 | -0.831 | -0.582 | -0.64 | -0.817
AUGUUCACUUGAUUAAUGGCGAAUAU [hsa-mir-1185-2_1185-1] | -0.673 | -0.629 | -0.39 | 0.337 | -0.89
AUGUUCGCUUCAUUCAUCAUGAAUAA [hsa-mir-655] | -0.299 | 0.297 | 0.089 | -0.248 | 0.385
AUGUUUAUUGUAAAGAUACUUU [hsa-mir-1305] | -0.121 | -0.643 | -0.418 | -0.249 | -0.517
AUUACUUGUGUUCUAUAUAAAGUAUU [hsa-mir-92a-2] | -0.831 | -0.393 | -0.0463 | -0.855 | -0.716
AUUAGACAGAAAAAAGUUAGACACAAAAAAUUGUGUCUAAU [hsa-mir-4759] | -0.525 | 0.284 | 0.561 | -0.0386 | 0.136
AUUAUGUUUUGGACAUAGAAACAUAAC [hsa-mir-5688] | -0.665 | -0.878 | -0.377 | -0.841 | -0.981
AUUCAGACUCAGGU [hsa-mir-921] | -0.0427 | -0.232 | -0.0856 | -0.651 | -0.204
AUUCUGAUGAUCACCUAGCCAGAAU [hsa-mir-5583-2] | 0.317 | 1.52 | 0.566 | -0.301 | 1.45
AUUCUGGACACCAG [hsa-mir-147b] | 0.326 | 0.0367 | 0.387 | -0.497 | 0.311
AUUCUGGAGUCCAUCUAGAG [hsa-mir-1182] | -0.297 | -0.538 | -0.378 | -1.08 | -0.598

Sequence | pull-down binding Z-score [1] | pull-down binding Z-score [2] | pull-down binding Z-score [3] | pull-down binding Z-score [4] | pull-down binding Z-score (TO-N3 (biotin conjugate))
AUUCUGGCUAGGUGAUCAUCAGAAU [hsa-mir-5583-1] | -0.726 | -0.794 | -0.406 | 0.902 | -1.07
AUUGAGAGUUCCUUCUCCUGCUCCUGAU [hsa-mir-6766] | -0.0576 | -0.548 | -0.369 | -0.32 | -0.462
AUUGAGUUACCUUUCUGACUUUCCCACU [hsa-mir-28] | -0.279 | 0.108 | 0.0519 | -0.594 | -0.0391
AUUGCACGUGUGUGAGGCGGGUGCAGU [hsa-mir-33b] | 0.592 | 0.626 | 0.102 | 0.513 | 0.7
AUUGCAUGUUCUGGUGGUACCCAUGCAAU [hsa-mir-33a] | 0.382 | 0.18 | 0.0325 | -0.215 | 0.127
AUUGCUGGACGCUGCCCUGGGCAU [hsa-mir-25] | 1.4 | 0.362 | 0.488 | -0.192 | 1.12
AUUGGAUGGAGUCAGGUCUCUAAU [hsa-mir-200b] | 0.568 | -0.126 | 0.101 | 0.359 | 0.26
AUUGGCUUGGAUUCUGCAAAGCCU [hsa-mir-7151] | 1.03 | -0.259 | 0.281 | 0.697 | 0.194
AUUGUACUGUGGUGGUUACAAU [hsa-mir-34b] | -1.19 | -0.851 | -0.429 | 0.118 | -0.984
AUUGUUGCCUCUGCAUGUUACAAU [hsa-mir-8066] | -0.665 | -0.204 | -0.512 | 0.523 | -0.485
AUUGUUGUGGGGUAGGGAUAUUAGGCCCCAAUUAGAAGAUAACUAU [hsa-mir-98] | 0.971 | 1.03 | 1.1 | 1.37 | 1.07
AUUUAUGUGAACUAAAAUAUAAAU [hsa-mir-513b] | -0.599 | 1.21 | 0.14 | -0.828 | 1.03
AUUUCCCAAAGUUGGGAAAA [hsa-mir-320b-2] | -1.08 | 0.0303 | -0.231 | -1.23 | -0.432
AUUUCUGUAGCUCUGAGACUAGACCU [hsa-mir-544b] | 0.409 | -0.442 | -0.376 | -0.0868 | -0.0563
AUUUCUGUGUUCGUUAGGCAACAG [hsa-mir-221] | 0.324 | 0.785 | 0.283 | 0.12 | 1.07
AUUUGCCAUCACCUUUACCUUUAAUGGCAAAA [hsa-mir-548av] | -0.906 | 0.0312 | -0.205 | -0.985 | -0.188
AUUUUCACUUAAU [hsa-mir-302f] | -1.17 | -0.0598 | -0.267 | 0.103 | -0.27
CAAAACUCCGUACAUUGCUAUUUUGC [hsa-mir-3064] | -0.105 | -0.563 | 0.0575 | -0.316 | -0.39
CAAACCGGACCUGAGCGUUUUG [hsa-mir-375] | 0.74 | 1.14 | 0.514 | -0.122 | 1.08
CAAAGACCAGAACUUAAUGGUCUCUG [hsa-mir-4490] | -1.15 | -0.471 | -0.671 | 0.704 | -0.888
CAAAUCGACUGUCCAAUGGAUUUG [hsa-mir-133a-2] | -0.536 | -0.529 | -0.146 | 2.07 | -0.674
CAAAUCGCCUCUUCAAUGGAUUUG [hsa-mir-133a-1] | -0.613 | 0.308 | -0.209 | 1.23 | 0.0594
CAACAGUUCUGUAGCGCAAUUGUG [hsa-mir-203a] | 1.07 | 0.0356 | 0.0351 | 0.267 | 0.622
CAACUACUCAGGAGGCUG [hsa-mir-566] | 0.304 | -0.196 | -0.179 | -0.123 | 0.0834
